The results in this text go back to patent US20200399394A1 (SURFACE ONCOLOGY, published 2020).

For assay [1], the target named is T1, human CD39 (ectonucleoside triphosphate diphosphohydrolase 1) (human, UniProt P49961 1-510).
T1 construct: Endogenous CD39 on MOLP-8 and SK-MEL-28 cells, primary human B cells and primary human monocytes; also called ENTPD1; ATPDase
T1 sequence: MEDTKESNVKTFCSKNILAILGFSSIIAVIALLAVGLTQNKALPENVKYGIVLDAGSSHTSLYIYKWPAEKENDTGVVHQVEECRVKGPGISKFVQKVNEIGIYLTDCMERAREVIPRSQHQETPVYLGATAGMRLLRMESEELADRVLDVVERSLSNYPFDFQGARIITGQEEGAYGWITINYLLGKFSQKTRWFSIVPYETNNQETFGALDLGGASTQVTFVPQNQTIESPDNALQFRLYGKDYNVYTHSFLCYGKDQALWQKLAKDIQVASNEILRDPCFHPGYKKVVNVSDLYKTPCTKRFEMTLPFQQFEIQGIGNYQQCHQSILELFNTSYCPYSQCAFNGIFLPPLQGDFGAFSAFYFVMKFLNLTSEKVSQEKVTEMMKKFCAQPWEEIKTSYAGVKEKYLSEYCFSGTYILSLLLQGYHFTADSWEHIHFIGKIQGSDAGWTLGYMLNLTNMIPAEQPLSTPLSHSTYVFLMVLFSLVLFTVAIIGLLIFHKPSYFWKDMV
Description: flow cytometry (MFI), AF488-labelled antibody on SK-MEL-28 cells, FIG. 4A. The protocol:
(§1) The extent of binding to cells was determined and expressed as mean fluorescent intensity (MFI). Cells were washed with FACS Buffer (2 mM EDTA, 2% FBS) and pelleted by centrifugation. The cells were resuspended in FACS buffer containing a dose range of anti-CD39 or isotype control antibodies directly labelled with fluorophore Alexa Fluor 488 (AF488) and incubated for 30 minutes at room temperature. Cells were then washed twice with FACS buffer followed by fixation in 4% paraformaldehyde (PFA) and resuspended in FACS buffer and analyzed on a FACS Canto II analyzer (BD Biosciences).
Background: In flow cytometry, cells or beads pass a laser one at a time.

Assay [2] deals with T1, human CD39 (ectonucleoside triphosphate …). Description: flow cytometry (MFI), AF488-labelled antibody, told under FIG. 4B (MOLP-8 cells; the sentence prints SK-MEL-28). On the procedure: as §1

B1: SRF365-A (antibody, human IgG4 S228P, kappa, V domains shown)
VH: QVQLVQSGAEVKKPGSSVKVSCKASGGTFSDKAISWVRQAPGQGLEWMGSILPIFGTANYAQKFQGRVTITADESTSTAYMELSSLRSEDTAVYYCAREAGYYRYRYFDLWGRGTLVTVSS
VL: EIVMTQSPATLSVSPGERATLSCRASQSVSSNLAWYQQKPGQAPRLLIYGASTRATGIPARFSGSGSGTEFTLTISSLQSEDFAVYYCQQHALWPLTFGGGTKVEIKR
B1: the binding result in assay [1] was “binds”.

B2: SRF370-A (antibody, human IgG4 S228P, kappa, V domains shown)
VH: QVQLVQSGAEVKKPGSSVKVSCKASGGTFSTYAIGWVRQAPGQGLEWMGGIIPAFGTANYAQKFQGRVTITADESTSTAYMELSSLRSEDTAVYYCARDPVRRSPFDIWGQGTMVTVSS
VL: EIVLTQSPATLSLSPGERATLSCRASQSVSSYLAWYQQKPGQAPRLLIYDSSNRATGIPARFSGSGSGTDFTLTISSLEPEDFAVYYCQQSFLWPRTFGGGTKVEIKR
Consider B2, for which the binding result in assay [2] was “binds”.
